To fix the notation:
B1: SG peptide 53 (peptide, UniProt P10124 132-151, looked up)
peptide: NLRSLDRNLPSDSQDLGQHG
notes: serglycin core protein, spot 53 of the 20-mer walk with two-residue shift; numbers count on: the mature protein (1-131); source: synthetic peptide on a cellulose membrane
B2: SG peptide 23 with D46 changed to A (peptide, UniProt P10124 72-91, looked up)
peptide: TALFPKTRIQDLNRIFPLSE
notes: serglycin core protein, mutated 20-mer of spot 23; numbers count on: the mature protein (1-131); source: synthetic peptide on a cellulose membrane
B3: HPX peptide 69 with Y672 mutated (peptide, UniProt P14780 657-676, looked up)
peptide: VPLDTHDVFQYREKAAFCQD
notes: MMP-9 HPX domain, mutated 20-mer of spot 69; source: synthetic peptide on a cellulose membrane
B4: SG peptide 54 (peptide, UniProt P10124 134-153, looked up)
peptide: RSLDRNLPSDSQDLGQHGLE
notes: serglycin core protein, spot 54 of the 20-mer walk with two-residue shift; numbers count on: the mature protein (1-131); source: synthetic peptide on a cellulose membrane
B5: recombinant proMMP-9 lacking the HPX domain (domain or fragment, human, UniProt P14780 20-515, looked up)
chain: APRQRQSTLVLFPGDLRTNLTDRQLAEEYLYRYGYTRVAEMRGESKSLGPALLLLQKQLSLPETGELDSATLKAMRTPRCGVPDLGRFQTFEGDLKWHHHNITYWIQNYSEDLPRAVIDDAFARAFALWSAVTPLTFTRVYSRDADIVIQFGVAEHGDGYPFDGKDGLLAHAFPPGPGIQGDAHFDDDELWSLGKGVVVPTRFGNADGAACHFPFIFEGRSYSACTTDGRSDGLPWCSTTANYDTDDRFGFCPSERLYTQDGNADGKPCQFPFIFQGQSYSACTTDGRSDGYRWCATTANYDRDKLFGFCPTRADSTVMGGNSAGELCVFPFTFLGKEYSTCTSEGRGDGRLWCATTSNFDSDKKWGFCPDQGYSLFLVAAHEFGHALGLDHSSVPEALMYPMYRFTEGPPLHKDDVNGIRHLYGPRPEPEPRPPTTTTPQPTAPPTVCPTGPPTVHPSERPTAGPTGPPSAGPTGPPTAGPSTATTVPLSPVDDA
notes: MMP-9 proenzyme, human; stop codon behind the codon for A515; the mature proenzyme starts at 20; also called rpMMP-9ΔHPX; proMMP-9ΔHPX; source: Sf9, baculovirus, purified (gelatin-Sepharose)
B6: recombinant human His-tagged serglycin (natural protein, UniProt P10124 28-158, looked up)
chain: YPTRRARYQWVRCNPDSNSANCLEEKGPMFELLPGESNKIPRLRTDLFPKTRIQDLNRIFPLSEDYSGSGFGSGSGSGSGSGSGFLTEMEQDYQLVDESDAFHDNLRSLDRNLPSDSQDLGQHGLEEDFML
notes: serglycin core protein, human, the tag stands instead of the signal peptide; no GAG chains; numbers count on: the mature protein (1-131); also called Ht-SG; SG core protein; source: bought: ProSpec (produced in Escherichia coli)
B7: HPX peptide 69 with F673 mutated (peptide, UniProt P14780 657-676, looked up)
peptide: VPLDTHDVFQYREKAYGCQD
notes: as for B3
B8: HPX peptide 41 with D609 mutated (peptide, UniProt P14780 601-620, looked up)
peptide: LDKLGLGAAVAQVTGALRSG
notes: MMP-9 HPX domain, mutated 20-mer of spot 41; source: synthetic peptide on a cellulose membrane
B9: SG peptide 21 with D46 changed to A (peptide, UniProt P10124 68-87, looked up)
peptide: PRLRTALFPKTRIQDLNRIF
notes: serglycin core protein, mutated 20-mer of spot 21; numbers count on: the mature protein (1-131); source: synthetic peptide on a cellulose membrane
B10: proMMP-9 purified from THP-1 cells (enzyme, human (endogenous in THP-1), UniProt P14780 20-707, looked up)
chain: APRQRQSTLVLFPGDLRTNLTDRQLAEEYLYRYGYTRVAEMRGESKSLGPALLLLQKQLSLPETGELDSATLKAMRTPRCGVPDLGRFQTFEGDLKWHHHNITYWIQNYSEDLPRAVIDDAFARAFALWSAVTPLTFTRVYSRDADIVIQFGVAEHGDGYPFDGKDGLLAHAFPPGPGIQGDAHFDDDELWSLGKGVVVPTRFGNADGAACHFPFIFEGRSYSACTTDGRSDGLPWCSTTANYDTDDRFGFCPSERLYTQDGNADGKPCQFPFIFQGQSYSACTTDGRSDGYRWCATTANYDRDKLFGFCPTRADSTVMGGNSAGELCVFPFTFLGKEYSTCTSEGRGDGRLWCATTSNFDSDKKWGFCPDQGYSLFLVAAHEFGHALGLDHSSVPEALMYPMYRFTEGPPLHKDDVNGIRHLYGPRPEPEPRPPTTTTPQPTAPPTVCPTGPPTVHPSERPTAGPTGPPSAGPTGPPTAGPSTATTVPLSPVDDACNVNIFDAIAEIGNQLYLFKDGKYWRFSEGRGSRPQGPFLIADKWPALPRKLDSVFEERLSKKLFFFSGRQVWVYTGASVLGPRRLDKLGLGADVAQVTGALRSGRGKMLLFSGRRLWRFDVKAQMVDPRSASEVDRMFPGVPLDTHDVFQYREKAYFCQDRFYWRVSSRSELNQVDQVGYVTYDILQCPED
notes: matrix metalloprotease-9 proenzyme, human; pre domain cleaved off, the mature proenzyme is 20-707; the preparation holds a small amount of TIMP-1; monomer and reduction-sensitive homomultimer; also called pMMP-9; promatrix metalloprotease-9; source: purified from conditioned medium of PMA-stimulated THP-1 cells (Q-Sepharose pass-through, gelatin-Sepharose)
B11: recombinant full-length proMMP-9 (enzyme, human, UniProt P14780 20-707, looked up)
chain: B10 chain
notes: matrix metalloprotease-9 proenzyme, human, full-length; pre domain cleaved off, the mature proenzyme is 20-707; also called rpMMP-9; source: Sf9, baculovirus, purified (gelatin-Sepharose)

Series [1] has as its target B10. Put plainly: peptide or protein array; 20-mer walk of the SG core protein on cellulose, two-residue shift; 8.8 ul of 11.2 ug/mL proMMP-9 in 10 mL blocking buffer, 1-4 h, room temperature; antibody against MMP-9. The note with it: both partners purified.
Series [2] concerns the target B10. Put plainly: peptide or protein array; mutated SG 20-mer peptides on cellulose, incubated with pMMP-9; antibody against MMP-9. The note with it: both partners purified.
Series [3] addresses B6. Put plainly: peptide or protein array; mutated FnII and HPX 20-mer peptides on cellulose, incubated with Ht-SG; antibodies against SG. The note with it: both partners purified.
Series [4] concerns the molecule itself. Kind of series: SDS-PAGE, Western blotting and gelatin zymography under non-reducing and reducing conditions; purified preparations; SDS-stable, reduction-sensitive homomultimer beside the monomer. For orientation: A western blot detects proteins with antibodies after separation by electrophoresis.
Series [5] deals with B10. Kind of series: far-Western, overlay or dot blot; slot blot: 200 ng Ht-SG on a polyvinyl difluoride membrane, blocked with milk powder, incubated with pMMP-9 for 2.5 h at room temperature; detected with antibody against proMMP-9. The note with it: both partners purified.

As to B1, the binding result in series [1] is “binds”. With B2, the binding result in series [2] is on record as “binds”.

As to B3, in series [3], the binding result was “binds”. As to B4, in series [1], the binding result is “binds”. For the molecule B5, the binding result in series [4] is “binds”. B6: in series [5], the binding result is reported as “binds”.

Consider B7, for which the binding result in series [3] is listed as “binds”. For the molecule B8, in series [3], the binding result is “binds”. For the molecule B9, the binding result in series [2] was “binds”.

For B10, the binding result in series [4] is “binds”. B11: the binding result in series [4] is recorded as “binds”.

Values taken from paper PMC7352350, “Molecular Interactions Stabilizing the Promatrix Metalloprotease-9·Serglycin Heteromer” (International Journal of Molecular Sciences, 2020).
